Results reported in patent publication US6613211B1, “Capillary electrokinesis based cellular assays” (Aclara BioSciences, Inc., priority 1999, dated 2003).
Several values for one entry are separate records, joined by “and”; a condition that tells them apart may be missing. Equal values may be shown once. Where no end group is shown, it is not given here. The star is where a group is joined. For = O=C*

How the values were obtained:
fMLP receptor [1] = molecular target: T1, fMLP receptor (Homo sapiens, UniProt P21462); assay: Cy-5-fMLPK fluorescence with cells read with Hitachi fluorimeter; assay type: binding; conditions: solution 3: 125 μl Cy-5-fMLPK, 125 μl cells, 1 μl 1 mM fMLPK
T1 sequence (P21462 1-350): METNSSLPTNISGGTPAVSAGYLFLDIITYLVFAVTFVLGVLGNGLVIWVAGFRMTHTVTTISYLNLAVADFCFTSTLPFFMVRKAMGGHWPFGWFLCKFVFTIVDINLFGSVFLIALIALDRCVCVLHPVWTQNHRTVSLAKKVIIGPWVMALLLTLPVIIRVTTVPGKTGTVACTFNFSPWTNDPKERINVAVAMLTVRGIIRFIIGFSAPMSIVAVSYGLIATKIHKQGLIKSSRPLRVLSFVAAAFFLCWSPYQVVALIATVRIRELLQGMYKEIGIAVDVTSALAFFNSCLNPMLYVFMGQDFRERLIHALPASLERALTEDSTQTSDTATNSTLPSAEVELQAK
Protocol: (§1) In the next study, pumping means was employed to move cells through a capillary. The cells were cultured cells having a high level of the fMLP receptor on the surface. The buffer solution was 140 mM NaCl, 1 mM KH2PO4, 5 mM Na2HPO4, 1.5 mM CaCl2, 0.3 mM MgSO4, 1 mM MgCl2, 0.2% BSA. The cell concentration in the reservoir was 10^6/ml and the receptor concentration was 413 pM. […] The labeled ligand was 4 nM, while the ligand concentration was varied from 2.5 nM to 250 nM. The device was comprised of a reservoir having a volume of 500 μl into which was introduced a capillary having an I.D. of 100 μm. In place of an electroosmotic pump, a syringe pump operating at 500 μl/min applied to the other end of the capillary was employed. The reading was taken at about 100 mm from the capillary inlet. The results are shown in FIGS. 4 and 5, where TR stands for tracer, RC refers to receptor and TRC refers to both Tracer and Receptor.
In the next study four solutions were prepared using the Cy-5 conjugate of fMLPK. The compositions are as follows: (1) 125 μl buffer and 125 μl Cy-5-fMLPK; (2) 125 μl Cy5-fMLPK and 125 μl cells; (3) 125 μl Cy-5-fMLPK, 125 μl cells and 1 μl 1 mM fMLPK; and 125 μl buffer and 125 μl cells. An Hitachi fluorimeter was used to read scence which covers 220 μl. For buffer, the readings were 34,33.

fMLP receptor [2] = molecular target: T1, fMLP receptor; assay: Capillary cytometric competition of labeled fMLPK binding to cells with a high level of fMLP receptor (syringe pump)
Protocol: In the next study, pumping means was employed to move cells through a capillary. […] The buffer solution was 140 mM NaCl, 1 mM KH2PO4, 5 mM Na2HPO4, 1.5 mM CaCl2, 0.3 mM MgSO4, 1 mM MgCl2, 0.2% BSA. The cell concentration in the reservoir was 10^6/ml and the receptor concentration was 413 pM. […] […] The device was comprised of a reservoir having a volume of 500 μl into which was introduced a capillary having an I.D. of 100 μm. In place of an electroosmotic pump, a syringe pump operating at 500 μl/min applied to the other end of the capillary was employed. The reading was taken at about 100 mm from the capillary inlet.

fMLP receptor [3] = molecular target: T1, fMLP receptor; assay: Calibration study, Cy5-fMLPK fluorescence with cells read with P/ACE; assay type: binding; conditions: solution 3: 25 μl cells, 25 μl 12 nM Cy5-fMLPK, 0.25 μl 1 mM fMLPK
Protocol: as §1
In and initial study for calibration, four solutions were prepared: (1) 25 μl buffer and 25 μl Cy5-fMLPK; (2) 25 μl cells and 25 μl 12 nM Cy5-fMLPK; (3) 25 μl cells and 25 μl 12 nM Cy5-fMLPK and 0.25 μl 1 mM fMLPK; and (4) 25 μl cells and 25 μl buffer. The flurescence was read with the aid of a P/ACE, which covers a volume of 50 μl.

fluorescence, column A (fMLP receptor [1]): 844
fluorescence, column C (fMLP receptor [1]): 826
fluorescence, column D (fMLP receptor [1]): 812
total peak height (fMLP receptor [2]; fMLPK 2.5 nM): 19
total peak height (fMLP receptor [2]; fMLPK 250 nM): < 1
total peak height (fMLP receptor [2]; fMLPK 2.5 μM): 0
fluorescence, column A (fMLP receptor [3]): 1,97 and 1.99
fluorescence, column B (fMLP receptor [3]): 1.98 and 1.97
fluorescence, column C (fMLP receptor [3]): 2.06, 2.06
fluorescence, column D (fMLP receptor [3]): 1.95 and 1.99
Substance: N-formyl-Met-Leu-Phe-Lys (For-MLFK) [fMLPK]
